# Assay results as given in a protein production outcome set (Wang et al. 2014).
# Assay: label from the status in PepcDB records
row,Sequence,protein production
1,MAKTLFWLCLLLPFYAWVGYPLLLALLSLFVRPRPVQEGAPLSVSVIIAAHNEGPHIEHKLRTLLQQDYPATDLQIILASDGSSDDTVATALGVRDSRIVVLDLPRVGKAGALNAAVELARNDILVFTDADNQWSHDTLGKLLAPLSDPQVGACGGHMIIPDPGHNLSLGDSLYRHYEAWLRQAENRTGCMVSADGALLALRRELFQRIPAEVNDDFFISTCAPVAGKRIVYVEEAQVLDQGVDEAGKQYRRRLRVTVGGLQSLAQRRELMNPLRHGAYAIALISHKLIRRLAPVLLLPLLVSSLLLWNAGAFYSLALLAQVLGYGAGIMGLLDRRGRLPKVFRLAGFVLVTMAGMSMGLWQFLRGQRYALWNPQQNR,failed
2,MAKTSRPSKAKQQALVHQLIGKIDAQPEDYHAYYELVVLLTAGQDFEQAEALAMKALGKFDHQQPAADYLRYALGNVYYQAQTYDKALPYYQQITDDQLKQDAYLMSAQALMAQHDYQHALVWAITAQEARPQQLDANLLVADILLALGNNQQASDYYQRAYKIDSQSGRAAFNLGLTAMVLGKPYATWFERAQKLDSQYFKSHQQQLTDIEKMLAAQADNQNH,failed
3,MAKVTISSVIDAPVEKVWARIRDFNGLPCWHPRMVESHIEDGKNASTIGCVRNFELITGARLREKLLDFSDENFLVSYSILETPQPLTNHKATLQLRRVTDGDRTYAEWTASFDAAPEEADKIAAGMGANVFQGGFNALKSHFSGQD,failed
4,MAKWRLATATLRRQLQSSSPTISTFKNPTKALSAAAHQSTRSYSTTQTDDSRGKWLTLPPFSPTIDGTAVGKDLLSDGDSVKSSTDNSKTTALRWILRCRPDLPRTLVQKLFRLRQVRREMSMSVDGDELQRSQLKRVAAKESLNVGDRIYLPLSVDNDTPQTPPAKKESFQCSDEERKFVCSLVLYKDPAIIVLNKPHGLAVQGGSGIKTSIDELAASCLKFDKSESPRLVHRLDRDCSGLLVLARTQTAATVLHSIFREKTTGASAYGVKKNVKSLKRKYMALVIGCPPRQRGQISAPLRKVVVDDGKSERITVNDNGELVSTQHAITEYRVIESSPHGYTWLELRPLTGRKHQLRVHCAEVLGTPIVGDYKYGWQAHKAREPFVSSENNPTKQSSSPFGLDLDGGDVSSKQPHLHLHSKQIDLPNISQLLEKMQVSSDSDISDLDSLKFDAPLPSHMQLSFNLLKSRVETCDKN,failed
5,MAKYDVLTIGNAIVDIIARCDDSFLEENGIIKGAMNLINADRAELLYSRMGPAVEASGGSAGNTAAGVASLGGRAAYFGKVADDQLGEIFTHDIRAQGVHFQTKPLDGHPPTARSMIFVTEDGERSMNTYLGACVELGPEDVEDDVVAQSKVTYFEGYLWDPPRAKDAIREAARIAHAHGRETAMTLSDSFCVHRYRSEFLELMRSGTVDIVFANRQEALALYETEDFDRALELLARDCKLAAVTLSEEGSVVVRGAERVRVGASVLEQVVDTTGAGDLYAAGFLFGYTSGRSLEECSKLGNLAAGIVIGQIGPRPLVSLATAARQAALV,not failed
6,MAKYETPPPVRPLEKLITDFSYTNGLDPVNVFNDFLTYIIHGFSPGAPPLQNWKYKRLQNMKFMEMLTGWVQLMASRIKDDTSWYDPFGDLYMALVSKSAQQSQGQFFTPVHICDLMVLCTQTEEKMTGQRMGDPTCGSGRLLLAYHARNPENYLIGEDINRTCCLMTVCNMLIHGCVGEVICHDSLNPGNFVDGWKVNPMLTWTGIPTIKRMNMKEYRAGRNLPASPYIIRKTMLAGSRKHKTDSLLPLQAVFKMLEHHHHHH,not failed
7,MAKYVVTSAWPYVNHVPHLGTLIGSVLSADIYARYLRLRGRQVVFVSGSDEHGTPIELEARKKGVHPKELTDQVHEYDVKMWREYRISFDNYSRTESPVHKEFVMEFMKKLEENGYIFSQEEVLPYCERDKIFLPDRFVEGTCPYCGYEKARGDQCDECGRLLHPTELKNPRCALCGSKPVYKSTRHWFIDLRRVQDRLLKWLESHGELQDSVKKYSINWVAQGLKPRSVTRDLSWGVPAPFKGAEGKTIYVWFDALLGYVSATKELFIMRRGDPEEWKSWWWDSGTRTVYFIGKDNIPFHAIILPALFLASHDPYVLPWRISATEYLMYEGQQFSKSRRIGVWIDEALEIAPADYWRWALARMRPEARDTNFTWKEFYRIVNTELNDDIGNFVNRVLSLVRSRMSGVAPEPEDLGEHQGFVERVRRAAWAVAEDLEAIRIKRATEGILEIAREGNAYLNRTQPWKLLSQDREEGVRALSAALYAVKTLAHLLAPFTPDAADRLWSMLGLAGSVHEAVWDEWLDRPLPGGARIVRVEPLFQKLPDDFLERVDEIVEDARRRAREKRPPLLRD,failed
8,MALANFIDRAATAASQVLADFHLEDFKAALEKQVVAVAFDDQAASCAEGQATLDLAVRLLARLYPVLAILPLGSAASFQAQALERLAKSINPKVGIRRSGKSATICVVAGVTRPPLRCPTFFMGSDGWAAKLSRTDPVGSGSSLLPYGAGAASCFGAANVFRTIFAAQLTGAELDETIDLSLYSYDKTKAGEAGPIDIPVDLGETHLVGLGAIGHGSLWALARQPGLTGRLHVIDHEAIELSNLQRYVLAGQAEIGMSKAVLAATALRSTAIGVEAHPLTWAEYVARHGDWVFDRVGVALDTAADRLAVQGALPRWIANAWTQEHDLGISRHGFDDGQACLCCMYLPSGKSKDEHHLIAEELGIPEAHEQVKTLLQTNAGVPNDFVVRVATAMAVPFEPLAPFVGQPLRSFYQQAICGGLVFQLSDGSRRVRTVVPMAFQSALAGIMLAAELVKHSAGFPVGPTTSTRVNLLRPLGSRLHDPKAKDSSGRCICSDDDFIAAYRRKYGKSIVQLSDVSAA,failed
9,MALARWGAALQRRWQAIDPAERAGFVAGARFYVGSLPPVFAWGLVTGVAMSKSVLTIPQAIGMTLLVYAGSSQLAVLPLMAAGLPVWTVLLTAFIVNVRFIIFSAGLMQHFSHLPFGRRVLIGFFNGDLPFVLFSQRYPGPGPERGKEGYLWGMALANWTIWQVSSLLGIVGASLFPDAWGLALAGTLALIPVMVSTIRSRATLMAVAVAAVLALVAFKLPYRLSLVIAVVGAMAAGLAGDEATARLQWQRRGAQPAPSEPKEGP,failed
10,MALDQSLVGRSYPPTAPYEVGREKIREFAEAVGDANPAYTDAEAAKALGHPDVIAPPTFVFSITFKAAGQVIEDPQLGLDYSRVVHGDQKFSYARPVRAGDRLTVTSTIEAIKSMAGNDILDIRGEVHDEAGEHVVTAWTKLVARAAEEALEHHHHHH,not failed
11,MALFSVFSVAQTTTYHTKNKKSISAYQEAELLQQQRRWNEAINVLDAVIQKDTGFVEAYYKVGSMYMAMGNKTAAARYFCKGADLDPSVKAFAGAYFTAGELSYNEGEYVRAKRYFGYALNVQSGDKKIKEQTPVYIAKCDFAIDMMKHPVDFKPVLMTPPINTAFAQSHPVLTADGKTLYYTTLSGLSRQDDENIVTSSYVNGKWSEPVSISDNINSKENEGTCSISMDGNSLVFVGCGKADGLGSCDIYISKKVNNVWSKPTNLGPAVNSTSWDSHPSLSADGRTLYFVSARKGGFGKEDIYVTHLDEKGIWSPAQNAGSSVNTSGTEFSPFIHADGTTLYFSSNGLLGMGGLDIFYTTGNDTTWAVPKNIGYPLNTYANDETLFITVDGAKGYYSRFDGTNVNYNSRIFLYEFDVPQSLKPGRISTFAKGHIYDKQTKKPLGARVELVDIETNTVTQAVQSDSITGEYTIVITEGKEYAVYVNRNKYLFESLNVNYKNPTSFDALTLDIYLTPIISGSHVTLNNIFFQTNSYQLEEKSISELKKLINFIQINPAQRVELAGYTDNVGTAEANLKLSAMRAKAVYDYLIQHGIKPAGITYKGYGAASPVADNNSEEGRQKNRRLEIKIL,failed
12,MALGFGMKMELQQFLDALASSPEKIEFETTMAVIEDNYDFTPAAFTNGNTQNDANENNGSCKIFAFGLLNALDKEATLACFGRFYREDVLLHPENNDHQNIRNFMVTGWEGIQFETSALTAK,not failed
13,MALHNDGFINRQFVFGDFVLQFDGVLCHQEQQISVPPKELAVLTALLEAAGELVSKDALLDKVWPDGDVNEESLTRCIYALRRILLEDKSNRYIDTVYGKGYRFSRPVAVVSRPTASAQKCTMAILPFRTDGQLDSLELHAALVQCLSRYSPFGLVVMPATITRNCGDIADIIAMIDQLRPDYYLAGQVQQQGDSWLLRVELVRADGHQLVHHESIEIGPGEHIAALQTRLASLLPQRIPGLRWHHGNGSQLDSLDMAITYLNGRHELQQHTPSSLKRALALFLQCTSSQPGNALPYCSLAECYLALAQLGLFDQERALDGAQQAVDRAVALDAANPQALGLLALLSSLRGQQTIAEALFEQARMLAPDSIDIHYYHAWHLFLSDRIPLAQRSLDACLERDPSRIAASMLQLWLTYCEHRLDEAVALGKRQLCQYGQDHPVLQSMLGLMLAIQGQHAQAEELAAAVKASGEEAGLLAVNGCYIAHCRMGDAARPLLQDFLSRVDCRQVRSGLLPLILALHGRAGALHLLGQLESDRYLWLRASRQDPRLAGLFHPHLSEAA,failed
14,MALIEGFRVRNYRALRDITLGRLSAEQQGDPLTPFTVVIGKNGVGKSTLFDAFGFVADCLSKDVESACDDKQRGGFERMRSLGTEESIRFDIYYREAKGERPITYELAINLDSSGRPFVESEVLKQRRKGQKHGRPYPFLRLHHGVGKVWAGEEAVETSSGEEDRAQEDVELTDLRQLGIATLGTLKEHPRIKRFRDFLKGWHLSYFHPDSARSIPSAGAQRHLDVHGENIGNVVQYMEREHKERFKTILDRIAAKIPGVHSIRTTVTQDKRVLLQFNDGAFNDPFYAGQMSDGTLKIFAYLLLMEDPEPPPFICIEEPENGLYHRLLDSLASELRSHATGKKNAPQIFVTTHQPYFVDALSTKEVWILEKGKNGFSTICRASDIDLVRNLVEEGLPLGGLWYGDYLDTK,failed
15,MALIETGPGSTVPMLQARLAARGLTPADVSEVFLTHIHLDHAGAAGHLARHGATIYAHHVGLPHLSDPARLLASARRIYGDDMDALWGEMHPVPDDQLVALNDGDTVPLGGEPLTALDTPGHASHHMSYVLGDVCFTGDVGGVRMPEERHVELPLAPPEIDLDAWRESLAALRAAADRHGLTHLAPTHFGLYDDLPAHFERLEAAIETADDWAARKLPGWDDGDEALQDAVTQWMRSRASDHGVDGDAWDRYERANPSWMAALGLRRYWTTQTA,failed
16,MALKELTAKEFESYSGNYDLQSFMQTPEMAKLLKKRGYDITYMGYQIDGKMEIISIVYTIPMTGGLHMEVNSGPAHSNSKYLKHFYKELQNYAKSQGALELLIKPYDTYQEFTGEGKPKGAPNTYLIDDLTSIGYHHDGLHIGYPGGEPDWHYVKNLEGITPQNLLKSFSKKGRPLVKKAMSFGIKIRVLKREELHIFKDITSSTSDRRDYMDKSLDYYQDFYDSFGDKAEFVIATLNFREYDHNLQLNAKKLEEQITVLDNRHQNNTDSAKYHRQRTELVNQLASLDKRRKEVEPFIQKFGNQDVVLAGSLFIYSPKETVYLFSGSYTEFNKFYAPAVLQEYVMQEALKRQSTFYNFLGIQGNFDGSDGVLRFKQNFNGYIVRKMGTFRYYPNPLKYKSIQLLKKILRRT,failed
17,MALKSHLRACSRPFPRQIGRMRRRNKSLPAAFVSKRLSVLIISRKPEMKALTCMAVLAALVTGSAFAQTPPQTSTRKVDGTDNVYIFRYGGHQSMFVVTPKGVIATDPISYLRPAKPYIDAIKAVTDQPIKYVVYSHHHYDHIAGGQPFKDLGATFIAHRRTKERLLELKKQNALLADVVMPDQVVDDKKSITLGGTTLELNYVGRNHSDNSLVMRLPKEKIVFVVDFAPIESVQFRNIPDNVSPLEYIASLKKLASLDWERMIPGHPNAGGRLGTKKDVEDDIAYMEDLSAEVKKAADAGKCIDTAMKEVKLPKYEKWANYETALPANVERFCYWWGRGY,failed
18,MALLLFFLFIALLGFGILKINNRSILGGITLASGTLLSLVTLLFIGLDKIYLHFKNGDLITLAIAYLLIPAVFIGICLYFIFNSRTMQTKEGKSVTAKLSAGLGLNLLIALPAFLYLLSVGTAQIPYVLFLFLLFLLLMDLLLTFLFAAYVLYSWMYQMIPLKKAVDYIIVLGSGIRSEEVPPLLKSRLDKGIEYYEKNPTAKFVVSGGQGPDEPVAEAFAMKKYLLSQNIPAEAILMEDQSTTTYENMLFSKAIIQADWQKMPSDSKQPSVIFSTNNYHVLRGAMYAHRVGLKAEGVGAPTALYFLPTALIREYIALLVHDKRIVLFVFLLVTLLLGISILPI,failed
